Reference: patent US20250346668A1 (GENOR BIOPHARMA, published 2025)

What was measured:
[1] = molecular target: T1, human CD3e/g antigen (ACRO, catalog number CDG-H52W5) (human, UniProt P07766 23-126; P09693 23-116); experiment: SPR (Biacore 8K), antibody captured via anti-human Fc
T1 construct: Bought reagent used as the Biacore analyte; also called hCD3e/g
Procedure: The equilibrium dissociation constant of binding of CD3 antibodies to human CD3e/g antigen (purchased from ACRO, catalog number CDG-H52W5) was determined by kinetic binding method using Biacore 8K (GE) system. Through the capture method, the carboxylated dextran surface of CM5 chip was first activated with NHS (N-hydroxysuccinimide) and EDC (1-(3-dimethylaminopropyl)-3-ethylcarbodiimide hydrochloride), and then added with an anti-human IgG (Fc) antibody, the free amino group of which could form an amide bond with the activated carboxyl group, thereby being fixed on the chip surface. The anti-human IgG (Fc) antibody could bind to the Fc end of CD3 antibodies to capture the antibodies, and then a series of concentrations of antigen were added to obtain the binding and dissociation curves of antibody and antigen, and the corresponding kinetic constants were calculated by Biacore Evaluation software, as shown in the table below.

[2] = molecular target: T2, human CD3e/d protein (Sinobiological, CAT: CT038-H2508H-B) (human, UniProt P07766 23-126; P04234 22-105); experiment: ELISA, coated hCD3e/d
T2 construct: Bought reagent; also called hCD3e/d
Procedure: (§1) Human CD3e/g protein, cynomolgus monkey CD3e/g protein (sequences shown in Table 1) or human CD3e/d protein was diluted with PBS to a final concentration of 5.0 μg/mL, and then added with 100 μl per well to a 96-well ELISA plate. The plate was sealed with plastic film and incubated overnight at 4° C. The plate was washed twice with plate washing solution [PBS+0.01% (v/v) Tween 20] on the next day, and was added with blocking solution [PBS+0.01% (v/v) Tween 20+1% (w/w) BSA] to block at room temperature for 2 hours. The blocking solution was poured off, and 100 μl per well of the purified CD3e/g antibody obtained in Example 2 was added. After incubation at 37° C. for 2 hours, the plate was washed 3 times with plate washing solution [PBS+0.01% (v/v) Tween20]. After adding HRP (horseradish peroxidase) labeled secondary antibody (purchased from Sigma), the plate was incubated at 37° C. for 2 hours, washed 3 times with plate washing solution [PBS+0.01% (v/v) Tween 20]. After adding 100 μl per well of TMB substrate and incubating at room temperature for 30 minutes, 100 μl per well of stop solution (1.0N HCl) was added. […] FIG. 2 and Table 3 show the binding activities of CD3e/g antibodies to hCD3e/g as detected by ELISA, and FIG. 3 and Table 4 show the binding activities of CD3e/g antibodies to cyno CD3e/g as detected by ELISA, wherein the IgG control is mouse IgG, and the data in the tables are OD_{450 nm} values. Among them, HIT3a was purchased from BD pharmigen with a catalog number 555336; SP34 was purchased from BD pharmigen with a catalog number 551916. OKT3 was purchased from Biolegend.

[3] = molecular target: T3, Cynomolgus monkey CD3e/g protein (cynomolgus monkey); experiment: ELISA, coated cyno CD3e/g
T3 construct: also called cyno CD3e/g; cCD3e/g
Procedure: as §1

Row | Kd [1] [nM] | koff [1] [s⁻¹] | kon [1] [M⁻¹ s⁻¹] | EC50 [2] [nM] | Emax (OD) [2] [OD] | OD450 nm at 0.00128 nM [2] [OD450 nm] | OD450 nm at 0.0064 nM [2] [OD450 nm] | OD450 nm at 0.032 nM [2] [OD450 nm] | OD450 nm at 0.16 nM [2] [OD450 nm] | OD450 nm at 0.8 nM [2] [OD450 nm] | OD450 nm at 4 nM [2] [OD450 nm] | OD450 nm at 20 nM [2] [OD450 nm] | OD450 nm at 100 nM [2] [OD450 nm] | EC50 [3] [nM] | OD450 nm at 0.000853 nM [3] [OD450 nm] | OD450 nm at 0.0043 nM [3] [OD450 nm] | OD450 nm at 0.02 nM [3] [OD450 nm] | OD450 nm at 0.11 nM [3] [OD450 nm] | OD450 nm at 0.53 nM [3] [OD450 nm] | OD450 nm at 2.67 nM [3] [OD450 nm] | further results | Binder
1 | 10 | 0.00427 | 427000 | – | – | – | – | – | – | – | – | – | – | – | – | – | – | – | – | – | – | hAb007-27 (antibody, V domains shown, Humanized; constant regions not specified) VH: QVQLVQSGAEVKKPGASVKVSCKASGSTFTDNYIHWVRQAPGQRLEWIGWIYPGSVNIKYNEKFKDRATITADTSASTAYMELSSLRSEDTAVYYCARDISRYYFDYWGQGTTVTVSS VL: DIVMTQSPDSLAVSLGERATMNCKSSQSLLNSRTRKNYLAWYQQKPGQPPKLLIYWASTRESGVPDRFSGSGSGTDFTLTISSLQAEDVAVYYCKQSFILRTFGGGTKLEIK
2 | 7.62 | 0.0032 | 419000 | – | – | – | – | – | – | – | – | – | – | – | – | – | – | – | – | – | – | hAb007-32 (antibody, V domains shown, Humanized; constant regions not specified) VH: QVQLVQSGAEVKKPGASVKVSCKASGSTFTDNYIHWVKQAPGQRLEWIGWIYPGSVNIKYNEKFKDRATITADTSATTAYMELSSLRSEDTAVYYCARDISRYYFDYWGQGTTVTVSS VL: DIVMTQSPDSLAVSLGERATMNCKSSQSLLNSRTRKNYLAWYQQKPGQPPKLLIYWASTRESGVPDRFTGSGSGTDFTLTISSLQAEDVAVYYCKQSFILRTFGGGTKLEIK
3 | 7.11 | 0.00316 | 445000 | – | – | – | – | – | – | – | – | – | – | – | – | – | – | – | – | – | – | hAb007-30 (antibody, V domains shown, Humanized; constant regions not specified) VH: QVQLVQSGAEVKKPGASVKVSCKASGSTFTDNYIHWVKQAPGQRLEWIGWIYPGSVNIKYNEKFKDRATITADTSATTAYMELSSLRSEDTAVYYCARDISRYYFDYWGQGTTVTVSS VL: DIVMTQSPDSLAVSLGERATINCKSSQSLLNSRTRKNYLAWYQQKPGQPPKLLIYWASTRESGVPDRFTGSGSGTDFTLTISSLQAEDVAVYYCKQSFILRTFGGGTKLEIK
4 | 11.8 | 0.00494 | 420000 | – | – | – | – | – | – | – | – | – | – | – | – | – | – | – | – | – | – | hAb007-28 (antibody, V domains shown, Humanized; constant regions not specified) VH: QVQLVQSGAEVKKPGASVKVSCKASGSTFTDNYIHWVRQAPGQRLEWIGWIYPGSVNIKYNEKFKDRATITADTSASTAYMELSSLRSEDTAVYYCARDISRYYFDYWGQGTTVTVSS VL: DIVMTQSPDSLAVSLGERATMNCKSSQSLLNSRTRKNYLAWYQQKPGQPPKLLIYWASTRESGVPDRFTGSGSGTDFTLTISSLQAEDVAVYYCKQSFILRTFGGGTKLEIK
5 | 5.26 | 0.00225 | 427000 | – | – | – | – | – | – | – | – | – | – | – | – | – | – | – | – | – | – | hAb007-31 (antibody, V domains shown, Humanized; constant regions not specified) VH: QVQLVQSGAEVKKPGASVKVSCKASGSTFTDNYIHWVKQAPGQRLEWIGWIYPGSVNIKYNEKFKDRATITADTSATTAYMELSSLRSEDTAVYYCARDISRYYFDYWGQGTTVTVSS VL: DIVMTQSPDSLAVSLGERATMNCKSSQSLLNSRTRKNYLAWYQQKPGQPPKLLIYWASTRESGVPDRFSGSGSGTDFTLTISSLQAEDVAVYYCKQSFILRTFGGGTKLEIK
6 | 9.85 | 0.00415 | 421000 | – | – | – | – | – | – | – | – | – | – | – | – | – | – | – | – | – | – | hAb007-29 (antibody, V domains shown, Humanized; constant regions not specified) VH: QVQLVQSGAEVKKPGASVKVSCKASGSTFTDNYIHWVKQAPGQRLEWIGWIYPGSVNIKYNEKFKDRATITADTSATTAYMELSSLRSEDTAVYYCARDISRYYFDYWGQGTTVTVSS VL: DIVMTQSPDSLAVSLGERATINCKSSQSLLNSRTRKNYLAWYQQKPGQPPKLLIYWASTRESGVPDRFSGSGSGTDFTLTISSLQAEDVAVYYCKQSFILRTFGGGTKLEIK
7 | – | – | – | 0.041 | 3.05 | 0.16 | 0.53 | 1.31 | 2.48 | 2.88 | 2.96 | 3 | 3.05 | 0.44 | 0.0893 | 0.111 | 0.16 | 0.48 | 2.03 | 3.32 | OD450 nm at 13.3 nM [3]: 3.48 OD450 nm; OD450 nm at 66.7 nM [3]: 3.42 OD450 nm | mAb008 (antibody, V domains shown, Mouse hybridoma antibody) VH: QVQLQQSGAELARPGASVKMSCKTSGYTFTDYTVNWVKQRPGQGLEWIGYINPFNSYTKYNQKFKDKATLTADKSSSTAYMQLSSLTSEDSAVYFCANSVSTYWGQGTTLTVSS VL: not shown
8 | – | – | – | 0.027 | 3.03 | 0.24 | 0.66 | 1.67 | 2.64 | 2.85 | 2.97 | 3.02 | 3.03 | 0.32 | 0.0755 | 0.126 | 0.19 | 0.63 | 2.44 | 3.41 | OD450 nm at 13.3 nM [3]: 3.54 OD450 nm; OD450 nm at 66.7 nM [3]: 3.46 OD450 nm | mAb009 (antibody, V domains shown, Mouse hybridoma antibody) VH: QVQLQQSGAELTRPGASVKMSCKASGYTFTDYTIHWVKQRPGQGLEWIGYINPFSDYTKYNQKFKDKATLTADKSSSTAYIQLNSLTSEDSAVYYCANSVSIYWGQGTTLTVSS VL: not shown
9 | – | – | – | 0.022 | 3.05 | 0.27 | 0.72 | 1.83 | 2.72 | 2.96 | 2.99 | 3.05 | 3.02 | 0.33 | 0.164 | 0.152 | 0.17 | 0.64 | 2.43 | 3.45 | OD450 nm at 13.3 nM [3]: 3.5 OD450 nm; OD450 nm at 66.7 nM [3]: 3.49 OD450 nm | mAb001 (antibody, V domains shown, Mouse hybridoma antibody; The variable regions are printed as CAb001 VH/VL) VH: QVQLQQSGPELVKPGASVKISCKASGYSFTNYYMHWVKQRPGQGLEWIGWTYPGNNNIKYNEKFKGKATLTADTSSSTAYMQLSSLTSEDSAVYYCARDGYGYYFFDYWGQGIILTVSS VL: DIVMSQSPSSLAVSAGEKVTMSCKSSQSLLNNRTRKNYLAWYQQKPGQSPKLLIYWASTRESGVPDRFTGSGSGTDFTLTISSVQAEDLAIYYCKQSYTLRTFGGGTKLAIK
10 | – | – | – | 0.017 | 3.04 | 0.26 | 0.71 | 2.02 | 2.86 | 2.96 | 2.99 | 3.01 | 3.04 | 0.26 | 0.0902 | 0.128 | 0.22 | 0.73 | 2.7 | 3.45 | OD450 nm at 13.3 nM [3]: 3.47 OD450 nm; OD450 nm at 66.7 nM [3]: 3.49 OD450 nm | mAb007 (antibody, V domains shown, Mouse hybridoma antibody; The variable regions are printed as CAb007 VH/VL) VH: QVQLQQSGPELVKPGASVKISCKASGSTFTDNYIHWVKQRPGQGLEWIGWIYPGSVNIKYNEKFKDKATLTADTSSTTAYMQLSSLSSEDSAIYYCARDISRYYFDYWGQGTTLTVSS VL: DIVMSQSPSSLAVSAGERVTMNCKSSQSLLNSRTRKNYLAWYQQKPGQSPKLLIYWASTRESGVPDRFTGSGSGTDFTLTISSVQAEDLAVYYCKQSFILRTFGGGTKLAIK
